From patent US5998142 come the findings set out here.

For data set [1], the target named is bradykinin, N-bromoacetylated (BrBK) (UniProt P01042). Particulars: 5'-GMPS (5' guanosine monophosphorothioate).
Data set [2] concerns the target T1, neutrophil elastase (hNE) (Homo sapiens) (UniProt P08246).
T1 sequence: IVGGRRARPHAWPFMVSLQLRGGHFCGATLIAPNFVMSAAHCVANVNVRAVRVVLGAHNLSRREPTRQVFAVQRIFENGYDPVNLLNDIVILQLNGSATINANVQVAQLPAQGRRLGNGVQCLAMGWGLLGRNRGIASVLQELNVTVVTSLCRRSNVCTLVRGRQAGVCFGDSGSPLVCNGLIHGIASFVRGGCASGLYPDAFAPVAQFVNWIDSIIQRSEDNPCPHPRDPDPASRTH
Nature of the data set: inhibition.

Chain of bradykinin, N-bromoacetylated (BrBK) (P01042 whole entry, looked up): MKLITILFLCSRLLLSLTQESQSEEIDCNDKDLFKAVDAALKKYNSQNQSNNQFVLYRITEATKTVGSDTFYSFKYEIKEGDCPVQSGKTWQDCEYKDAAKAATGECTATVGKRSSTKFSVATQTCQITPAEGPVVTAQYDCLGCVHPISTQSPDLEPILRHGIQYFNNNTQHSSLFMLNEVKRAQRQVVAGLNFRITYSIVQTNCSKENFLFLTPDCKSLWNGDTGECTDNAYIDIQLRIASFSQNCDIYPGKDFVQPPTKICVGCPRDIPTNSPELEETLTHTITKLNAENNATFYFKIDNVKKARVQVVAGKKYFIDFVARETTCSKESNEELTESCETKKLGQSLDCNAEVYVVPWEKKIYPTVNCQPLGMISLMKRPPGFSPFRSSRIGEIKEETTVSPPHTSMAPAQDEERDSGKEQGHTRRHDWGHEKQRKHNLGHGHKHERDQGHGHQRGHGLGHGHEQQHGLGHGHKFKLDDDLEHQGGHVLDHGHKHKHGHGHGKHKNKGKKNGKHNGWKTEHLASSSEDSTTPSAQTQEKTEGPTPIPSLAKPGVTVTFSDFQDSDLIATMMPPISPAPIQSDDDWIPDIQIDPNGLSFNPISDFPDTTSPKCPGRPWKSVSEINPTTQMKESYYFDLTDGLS

Turning to “GGGAGCUCAGAAUAAACGCUCAANNNNNNNNNNNNNNNNNNNNNNNNNNNNNNUUCGACAUGAGGCCCGGAUCCGGC [30N1 pool]”, the K half in data set [1] is 13 mM.

As to “GGGAGGACGAUGCGGNNNNNNNNNNNNNNNNNNNNNNNNNNNNNNNNNNNNNNNNCAGACGACGAGCGGGA [40N7.1 rd0 RNA:DNA:valP]”, the activity in data set [2] (2'-NH2 U and C, kinact/[I], unit not given, pool, 37 C) amounted to 290000.

“GGGAGGACGATGCGGCAGNNGGNNCAGGTAATGTGAGTAACCTCTACTACTCTGCAGACGACGAGCGGGA [ED15]” returned an activity in data set [2] (kinact/KI, room temperature) of 4.8e+08 M⁻¹ min⁻¹.

With “GGGAGGACGATGCGGACCACAGCCACTAGNNGCATCGTCCTCTGCGTCCAGACGACGAGCGGGA [ED21]”, in data set [2] (kinact/KI, room temperature), the activity was 3.2e+06 M⁻¹ min⁻¹.

In data set [2] (kinact/KI, pool, room temperature), “GGGAGGACGAUGCGGNNNNNNNNNNNNNNNNNNNNNNNNNNNNNNNNNNNNNNNNCAGACGACGAGCGGGA [40N7.1 ssDNA pool]” registered an activity of 1.86e+06 M⁻¹ min⁻¹.
